Here are results for 3 molecules from PMC4726326, “The Arabidopsis glutamyl-tRNA reductase (GluTR) forms a ternary complex with FLU and GluTR-binding protein” (Scientific Reports, 2016).

The labels stand for the following.
B1: C-terminal tetratricopeptide-repeat domain of Arabidopsis FLUORESCENT (FLU), residues 195-316 (domain or fragment, Arabidopsis thaliana, UniProt Q940U6 195-316, looked up)
chain: IVEPKKQELISKLKTGKTFLRNQEPEKAYTEFKIALELAQSLKDPTEEKKAARGLGASLQRQGKYREAIQYHSMVLAISKRESEDSGITEAYGAIADCYTELGDLEKAGKFYDTYIARLETD
notes: FLUORESCENT (FLU), Arabidopsis thaliana, At3g14110, truncation of residues 195-316 (TPR domain); Expression vector pET-22b(+); also called FLU^TPR; the recombinant TPR domain of FLU
B2: Arabidopsis GluTR-binding protein (GBP), residues 42-317 (natural protein, Arabidopsis thaliana, UniProt Q9LU39 42-317, looked up)
chain: CSVSTTLDTPATASTHKPFPAEVSRSIMELSSVGTLSTLTHDGWPLGVGVRFAVDKDGTPVLCLNRSVSPDKRSALHVQLEQCGLRTPQCTIQGSIGRPGDDTVLKRLSATWREKFGEEVKEDSLYVVAVDRVLQMEDFMEDGIWVASSDYKNASPDPLRDIAEDIVNQINANNMEDIFRFCNVYVDLDFVVSETKMIWMDRLGFDLRVWSPRGVYDVRIPFPMEVTDEKGAKSSFNGMSQLAWEVEKSYCPADFNKVKLLKQVVGSSHSHKGGGQ
notes: Expression vector pET-28a(+)
B3: Arabidopsis glutamyl-tRNA reductase (GluTR), residues 73-543 (enzyme, Arabidopsis thaliana, UniProt P42804 73-543, looked up)
chain: AASISALEQLKNSAADRYTKERSSIVVIGLSIHTAPVEMREKLAIPEAEWPRAIAELCGLNHIEEAAVLSTCNRMEIYVLALSQHRGVKEVTEWMSKTSGIPVSEICQHRFLLYNKDATQHIFEVSAGLDSLVLGEGQILAQVKQVVKVGQGVNGFGRNISGLFKHAITVGKRVRTETNIASGAVSVSSAAVELALMKLPQSSNVSARMCVIGAGKMGKLVIKHLMAKGCTKVVVVNRSEERVSAIREEMPGIEIIYRPLDEMLACASEADVVFTSTASETPLFLKEHVENLPQASPEVGGLRHFVDISVPRNVGSCVGEVETARVYNVDDLKEVVAANKEDRMRKAMEAQTIITEESTQFEAWRDSLETVPTIKKLRAYAERIRVAELEKCMSKMGDDINKKTTRAVDDLSRGIVNRFLHGPMQHLRCDGSDSRTLSETLENMHALNRMYGLEKDILEEKLKAMAEQQQK
notes: Expression vector pMAL-c5X; GluTR dimer fractions were collected from the gel filtration

Series [1] deals with the molecule itself. Description: crystal structure; FLU^TPR-GluTR-GBP ternary complex, space group C2, 3.2 Å, PDB 5CHE; sitting drop, 16 °C.
The target of series [2] is B3. Description: SEC; purified GluTR, GBP and FLU^TPR mixed at molar ratio 2:3:3, 1 hour at 4 °C; HiLoad 16/60 Superdex 200 pg; 20 mM Tris-HCl pH 7.5, 200 mM NaCl, 4 mM dithiothreitol. The following applies: both partners purified. For orientation: In gel filtration, larger molecules generally elute earlier.
Series [3] has as its target B3. The series can be described thus: ITC; MicroCal iTC200, 25 °C; 20 mM Tris-HCl pH 7.5, 150 mM NaCl; 20 injections of 2 μl of 0.5 mM protein into 200 μl of 50 μM protein; one-site binding model; apparent Kd. The note with it: both partners purified.

In the case of B1, the binding result in series [1] and in series [2] was “binds” in each case.

Consider B2, for which the binding result in series [1] is on record as “binds”. The Kd in series [3] stood at 41.3 ± 3.7 nM.

Regarding B3, the “stoichiometry N” value in series [1] came out at 2.

What is called stoichiometry N is a count of units in the complex or per binding partner.
